{"source": "the nanobody polyreactivity screen of Harvey et al. (2022)", "data": [{"test": "yeast display, Sf9 membrane polyspecificity reagent, FACS + sequencing; frameworks hold sequencing errors", "how_it_was_run": "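Galactose-induced (36–48 hours) yeast carrying a synthetic nanobody display library were exposed to 10% biotinylated, detergent-solubilized Sf9 membrane reagent at 4 °C for 1 hour. FACS followed streptavidin microbead enrichment, using low and high (top ~1%) gates for expression (anti-HA) and reagent binding (streptavidin). Colony PCR, MiSeq 2 × 250 sequencing and CDR-length filtering followed. Labels for polyreactivity reflect the gate of origin.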", "values": [{"sequence": "QVQLLESGGGLVQAGGSLRLSCAASGSTFLYNAMGWYRQAPGKERELVAGIRRSGGSTYYADSVKGRFTISRDNAMNTVYLQMNSLKPEDTAVYYCNTDRTLSYQYGGYDYWGQGTQVTVSS", "polyreactivity (PSR sort gate)": "low polyreactivity"}, {"sequence": "QVQLVESGGVLVQAGGSLRLSCAAYGFIFDYYAMGWYRQAPGKERELVAAITSRGGSTYYADSVKGRFTISRDNAKNTVYLQMNSLKPEDSAVYYCAARRRSAEYNYWGQGTQVTVSS", "polyreactivity (PSR sort gate)": "high polyreactivity"}, {"sequence": "QVQLEESGGGLVLAGGSLRLSCAAAGSTFVTNDMGWYRQAPGKERELGAAISVGGRTSYADSVKGRFTISRDNAKNTVYLQMNSLKPEESAVDYCAAQYSYTYWGQGTQVTVSS", "polyreactivity (PSR sort gate)": "low polyreactivity"}, {"sequence": "QVQHVESAGGLVQAGGSLPLRCAASGSTFSPNALGGYSHAHGKERELVARITRSGSRTSYADSLKGRFTISRDNAKNPVYFQMNSLKPEDTAVYYCAAEGPKQYDYWGQGTHVTVSS", "polyreactivity (PSR sort gate)": "low polyreactivity"}, {"sequence": "QVQLVESGGGLVQAGGSLRLSCAASGSTFLDYAMGWYRQAPGNERELVAAISPDDSSTYYADSVKARFTISRDKAKNTVSLHMTSLKPEDTAVYYFAADDRDWVNYDYWGQGTQVTVSS", "polyreactivity (PSR sort gate)": "low polyreactivity"}, {"sequence": "QVQLVETGGGLVQAGGSLRLSCAASGSTFWRNSMGWYRHAPGKEREFVASISWSGGGTYYADSVKGRFTISRDNAKNTVYLQMNILKPEDTAVYYCAATPYWSYWYGNGDYDYWGQGTQVTVSS", "polyreactivity (PSR sort gate)": "low polyreactivity"}, {"sequence": "QVQLVESGGGLVQAGGSLRLSCAASGFTFASNAMGWYRQAPGKERELVAAITWGTGTTSYADSVKGRFTISRDYAKNTVYLQMNSLKPEDTAVYYCNARVGPELHDYWGQGTQVTVSS", "polyreactivity (PSR sort gate)": "low polyreactivity"}, {"sequence": "QVQLVESGGGLVQAGGSLRLSCCATGSIFYSYVMGWYRQAPGKEREWFAAISRNGQSTYYADSVKGRFTISLDNAKNTVYLQMNSLKPDDTAVYYCAARSRDKYDYWGQGTQVTVSS", "polyreactivity (PSR sort gate)": "high polyreactivity"}, {"sequence": "QVQLVESGGGLVQAGGSLRLICAASGFIFNKNAMGWYRQAPGKERELVAAISQIGGTTYYADSVKGRFTISRVNAKNTVYLQMNSLKPEDTSVYYCAASRRVQSDYWGQGTQVTVSS", "polyreactivity (PSR sort gate)": "high polyreactivity"}, {"sequence": "QVQLVESGGGLVQAGGSLRLSCAASGRIFTTYAMGWYRQAPGKERELVARISSGGTTYYADSVQGRFTISRDNAKNTVYLQMNSLKPEDTAVYYCNVRAVTPTRSRPFRYDYWGQGTQVTVSS", "polyreactivity (PSR sort gate)": "high polyreactivity"}, {"sequence": "QVQLVDSGGGLVQAGGSLRLSCAASGSTFVTYAMRWYRQAPVKERELVAAITEDGASTYYADSVKGRFTISRDNAKNTVYFQLNSLYPEDTAVYYCAADPTYWPVWYVLYDYWGQGTQVTVSS", "polyreactivity (PSR sort gate)": "low polyreactivity"}, {"sequence": "QVQLVESGGGLVQAGGSLRLSCADSGSSFPSYAMLWYRQAPGKERELVAAISSSGGRTYYADYVKGRFTISRDNAKNTVYLQMNSLIPVDTAVYYCAADRRKWPTGGYWGEGTQVTVSS", "polyreactivity (PSR sort gate)": "high polyreactivity"}, {"sequence": "QDQLVESGGGLVQAGGSLRLSCAASRLTFYVYAMGWYRQAPGKERELVAAISGRGGRTYYADSVKGRFTISRDNAKNTVYLQMNSLKPEDTAVYDCAPRYPRYRYVEYGYNYWGQGTQVTVSS", "polyreactivity (PSR sort gate)": "high polyreactivity"}, {"sequence": "QVQLVESGAGLVQAGGSLRLSCAASGSIFQPDAMGWYRQAPGKERELVAAITNCGSTYYADSVKGRFTISRDNAKNTVYLQMNSLNPEVTAVYYCAADVQSSHEYDYWGQGTQVTVSS", "polyreactivity (PSR sort gate)": "low polyreactivity"}, {"sequence": "QVQLVESGGGLVQAGGILRLSCAASGSIFSGYAMGWYRQAPGKERELVAAITWRAASTYYADSVKGRFTISRDNAKNTVYLQMNSLKPEDTAVYYCAKEGWPKPAFYYWGQGTQVTVSS", "polyreactivity (PSR sort gate)": "low polyreactivity"}, {"sequence": "QVQLVESGGGLVQAGGSLRLSCAASGSTSSNNAMGWYRQAPGKEREFVADISSRGGSTYYADSVKGRFTISRDNAKNTVYLQMNSLKPEDTAVYYCARTRFWLRYRLFDYWGQGTHVTVSS", "polyreactivity (PSR sort gate)": "low polyreactivity"}, {"sequence": "QVQLVESGGGLVQAGGSLRLSCAASGSIFYGNVMGWYRQAPGKERELVAAISSSGGSTYYADSVKGRFTISRDTAKNTVYLQMNSLKPEDTAVYYCAAYWWSRVVRGSRYDYWGQGTQVTVSS", "polyreactivity (PSR sort gate)": "low polyreactivity"}, {"sequence": "QVQLVESGGGLVQAGGSLRLSCAASGFIFSTNAMGWYRQAPGKERELVAAISRRGGNTYYADSVKGRFTISRDNAKNTVYLQMNSLKPEDTAVYYCNAVFRSGGLDYWGQGTQVTVSS", "polyreactivity (PSR sort gate)": "high polyreactivity"}, {"sequence": "QVQLVESGGGLVQAGGSLRLSCAASGLTFQYNTMGWYRQAPGKERELVARINWGGDSTYYADSVKGRFTISRDNAKNTVYLQMNSLTPEDTAVYYCAAPGYSGRYGYYTYYLYDYWGQGTQVTVSS", "polyreactivity (PSR sort gate)": "low polyreactivity"}, {"sequence": "QVQLVESGGGLVQAGGSLRLSCAASGNTLTYNVMGWYRQGPGKERELVAAISGRGGRTYYADSVKGRFTISRDNAKNTVYLQMNSLKPEATAVYDCATRDRAGYYYWGQGTQVTVSS", "polyreactivity (PSR sort gate)": "high polyreactivity"}, {"sequence": "QVQLVESGGGLVQAGGSLRLSCAASGRIFDYYAMGWYRQAPGKERELVAAINSGGSTYYADSVKGRFTISRDNAKNTVYLQMNSLKPEDTAVYYCAAKSFAPIVDYWGQGTQVTVSS", "polyreactivity (PSR sort gate)": "high polyreactivity"}, {"sequence": "QVQLVESGGGLVQAGASLRLSCAAYGNINAYYAMGWYRQAPGKERELVAAITDSGGNTFYADSVKGRFTISRDNAKNTVYLQMNSLTPADSAVYYCADDPDGWGFVYPRYDYWGQCTQVTVSS", "polyreactivity (PSR sort gate)": "low polyreactivity"}, {"sequence": "QVQLVASGGGLVQAGGSLLLSCAASGRIFAEYAMGWSRQAPGKERELVAVIDGTGGSTYYADSVKGRFTISRDNEKNTVYLLMNSLNPEDTAVYYCAATGRGSGRRFNYWGQGTQVTVSS", "polyreactivity (PSR sort gate)": "high polyreactivity"}, {"sequence": "QVQLVESGGGLVQEGGSLRLICAASGNTSPFYSMGWYRQAPGKERELVAAISANGGSTTYADSVKGRFTISRDNAKNTVYLQMNSLKTEVTAVYYCNTYYWYSGSPYVYWGQGTQVTVSS", "polyreactivity (PSR sort gate)": "low polyreactivity"}, {"sequence": "QVQLVESGGGLVQAGASLRLSCASSGSIFPGYDMGWYRQAPGKEREMVAAITTGGSTYYADSVKGRFTISRDNAKNTVYLQMNSLKPEDTAVYYCAAVYTGSGKRYYKGYYWGQGSQVTVSS", "polyreactivity (PSR sort gate)": "low polyreactivity"}, {"sequence": "QVQLVESGGGLVQAGGSLRLSCAASGSTFRVYAMGWYRQAPGKERELVANISWGGGRTYYADSVKGRFTISRDNAKNTVYLQMNSLKPEDTAVYYCAADIAWYTHYHRIFDYWGQGTQVTVSS", "polyreactivity (PSR sort gate)": "low polyreactivity"}, {"sequence": "QVQLVDSGGGLVQAGGSLRLSCAASGLTFYYYAMGWYRQAPGKESELVSAISATGGRTYYSDSVKGRFTISRDNAKNTVYLQMNSLKPEDTAVYYCAADTPYLRRRLGMDYWGQGTQVTVSS", "polyreactivity (PSR sort gate)": "high polyreactivity"}, {"sequence": "QVQLVDSGGGLVQAGGSLRLSCAASGSTCYYYNMGWYRQSPWKERELVAAISFIGGSTYYADSVKGRFTISRDNAKYTVYLQMNSLTPEDTAVFYCAAEFYRWGSLSFSNDYWGQGTQVTVSS", "polyreactivity (PSR sort gate)": "low polyreactivity"}, {"sequence": "QVQLVESGGGLVQAAGRLRLSSAASGIIFYSYAMGWYRQAPGTEREFVAAITNSDGSTYYADSVKGRFTISRDNAKNTVYLQMYSLKPEDTAVYMYYWGQGTQVTVSS", "polyreactivity (PSR sort gate)": "low polyreactivity"}, {"sequence": "QVQLVESGGGLGQAGGSLRLSCAASGSIFSAYAMGWYRPAPGKERELVAGISKRGGSTYYADSVKGRFTISRDNAKNTVYLQMNSLKAEDTAVYYCTAARYTVVTKLFDYWGQGTQVTVSS", "polyreactivity (PSR sort gate)": "high polyreactivity"}, {"sequence": "QVQLVESGGGLVQAGGSLRLTCAASGSIFGGYTMGWYRQAPGKERELVAAISRRGGNTYYADSVKGRFTISRDNAKYTVYLQMNSLKPEDTAVYYCNARPTTYNYDYWGQGTQVTVSS", "polyreactivity (PSR sort gate)": "high polyreactivity"}, {"sequence": "QVHLVESAAGFVQAGGSLRLSGAASGFILWYYTMGWYRQAPGKERELVAVIDWSGDSTYADSVKGRFTISLDNAKNSVYLQMNSLIPVDTAVYYWNADYFVVWARLEFNYWGQGTQVTVSS", "polyreactivity (PSR sort gate)": "low polyreactivity"}, {"sequence": "QVQLVESAGGLVQAGGSLSLSCAASGRIFTDYAMGWYRQAPGKERELVARISRSDGSTYYADSVKGRFSISRDNAKNNVYLQMNSLKAEDTAVYYCAAQWTDGRRDHWWDKGFYYWGLGTQVTVSS", "polyreactivity (PSR sort gate)": "low polyreactivity"}, {"sequence": "QVQLVESGGCLVQAGGSLRLSCAASGSTFPIYAMGWYRQAPGKERELVARITWNGGRTYYADSVKGRFTISRDNAKNTVYLQMNSLKPEDTAVYYCAAGKIGSYHYDYWGQGTQVTVSS", "polyreactivity (PSR sort gate)": "high polyreactivity"}, {"sequence": "QVQLVESGGGLVQAGGSLRLSCAASGSIFAYYAMGWYRQAPGKEREFVAAISKRGGRTYYADSVKGRFTISRDNAKNTVYLQMNSLKPEDTAVYYCAAPWAYPRSGGDYWGQGTQVTVSS", "polyreactivity (PSR sort gate)": "high polyreactivity"}, {"sequence": "QVQLVESGGGLVQAGGILRLSCDASGFTFYYYTMGWYRQAPGKERELVAAISKSGGTTYYADSVKGRFTISRDNAKNTVYLQMNSLKPEDTAVYYCAAKPWVWVYARYGKHPSYDYWGQGTQVTVSS", "polyreactivity (PSR sort gate)": "high polyreactivity"}, {"sequence": "QVQLVESGGGLVQAGGSLRLSCAASGSIFGLNAMGWYRQAPGKERELVARISTGSSTNYADSVKGRFTISRDNAKNTVYLQMNSLKPEDTAVYYCAADVDGGRHYGYWGQGTQVTVSS", "polyreactivity (PSR sort gate)": "low polyreactivity"}, {"sequence": "QVQLLESGGGLVQAGGSLRLSCAASGSIIPYYAMGWYRQAPGKESELVAAITSGGGSTYYADSVKGRFTISRDNAMNSVYLQMNSLKPEDTAVYYCAAVLTSYYGGDYWGQGTQVTVSS", "polyreactivity (PSR sort gate)": "low polyreactivity"}, {"sequence": "QVQLVESGGGLVQAGGSLRVSCAASGRIFKSNAMGWYRPAPGKERELVASSTASGGRTYYADSVKGRFTISRDNAKNTVYLQMNSLKPEDTAVYYCAAGRPFSKYGYWGQGTQVTVTS", "polyreactivity (PSR sort gate)": "high polyreactivity"}, {"sequence": "QVQLVESGGGLVQAGGSLRLSCAASGRTFAYNTMGWYRQAPGKERELVAVISSGGRTYYADSGKGRFTMSRDNAKNTVYLQMNSLKPEDTAVYYCAADGYPYKYDYWGQGTQVTVSS", "polyreactivity (PSR sort gate)": "high polyreactivity"}, {"sequence": "QVQLVESGGGLVQAGGSLRLSCADSGSTFYHNAMGWYRQAPGKERELDDAIRFSGTSTYYADSVKGRFTISRDNAKNTVYLQMNSLKPEDTAVYYCAAEVSSPAQREFDYWGQGTQVTVSS", "polyreactivity (PSR sort gate)": "low polyreactivity"}, {"sequence": "QVQLVESGGGLVQAGGSLRLSCAASGSTFYIYAMGWYRQAPGKERELVAVITRRGGSTSYADSVKGRFTISRDNAKNTVYLQINSLKPEDTAVYYCAAKRTWPDVKYIRYGYWGQGTQVTVSS", "polyreactivity (PSR sort gate)": "high polyreactivity"}, {"sequence": "QDQLVESGGGLVQAGGSLRLSCAASGSTFAGYAMGWYRQAPGKERELVATITYSGGSTYYADSVKGRFTISRDNAKNTVYLQMNSLKPEDTAVYYCAKKASYWWGYEYWGQGTQVTVSS", "polyreactivity (PSR sort gate)": "low polyreactivity"}]}]}
